Key:
[1] = biological target: Myc-GST融合蛋白(Myc标签与谷胱甘肽融合的蛋白); experiment: ELISA on coated Myc-GST (5 μg/mL), anti-His-HRP detection, heat tolerance test at 70℃
[2] = biological target: Myc-GST融合蛋白(Myc标签与谷胱甘肽融合的蛋白); experiment: ELISA on coated Myc-GST (5 μg/mL), anti-His-HRP detection, heat tolerance test at 80℃
[3] = biological target: Myc-GST融合蛋白(Myc标签与谷胱甘肽融合的蛋白); experiment: ELISA on coated Myc-GST (5 μg/mL), anti-His-HRP detection, heat tolerance test at 90℃

B1: 抗c-Myc标签单域重链抗体 (VHH)
VHH: QLQLVESGGGSVQPGGSLTLSCSASGFNISQYSVGWFREAPGEEREGISCLDIDGKITTFSDAIQGRFTIARDNAANMIYLHMDALNPLDTAVYRCVARWDCSRHDFITQKTATGIWGPGTQVTVSA
OD450 [1]: 1.5 OD450
OD450 [2]: 1.3 OD450
OD450 [3]: 1.1 OD450

From patent CN106914229A
